Test results reported in patent US20110300138A1 (published 2011).
Where two headings read alike, the source gives them in different places.

What was measured:
[1] = target: human TSHR (wild type, full length) expressed in CHO cells (human) (UniProt P16473); assay: cell-based or functional assay
[2] = target: TSHR260-alkaline phosphatase (TSHR260-AP) (human) (UniProt P05187); assay: TSHR260-AP bridge ELISA, full length TSHR on wells; 10 µg/mL, diluted in assay buffer
[3] = target: TSHR260-alkaline phosphatase (TSHR260-AP) (human) (UniProt P05187); assay: TSHR260-AP bridge ELISA, full length TSHR on wells; 0.5 µg/mL, diluted in assay buffer
[4] = target: TSHR260-alkaline phosphatase (TSHR260-AP) (human) (UniProt P05187); assay: TSHR260-AP bridge ELISA, full length TSHR on wells; 0.05 µg/mL, diluted in HBD
[5] = target: TSHR260-alkaline phosphatase (TSHR260-AP) (human) (UniProt P05187); assay: TSHR260-AP bridge ELISA, full length TSHR on wells; 100 µg/mL, diluted in HBD
[6] = target: TSHR260-AP (human); assay: TSHR260-AP bridge ELISA (full length TSHR on wells, TSHR260-AP in solution); IgG 10 µg/mL diluted in HBD serum
[7] = target: TSHR260-AP (human); assay: TSHR260-AP bridge ELISA (full length TSHR on wells, TSHR260-AP in solution); IgG 1 µg/mL diluted in HBD serum
[8] = target: TSHR260-AP (human); assay: TSHR260-AP bridge ELISA (full length TSHR on wells, TSHR260-AP in solution); IgG 0.05 µg/mL diluted in assay buffer
[9] = target: TSHR260-AP (human); assay: TSHR260-AP bridge ELISA (full length TSHR on wells, TSHR260-AP in solution); IgG 0.5 µg/mL diluted in HBD serum
[10] = target: human TSHR expressed in CHO cells (human) (UniProt P16473); assay: cell-based or functional assay
[11] = target: human TSHR (wild type, full length) expressed in CHO cells (human) (UniProt P16473); assay: cell-based or functional assay; remark: listed apart in the source
[12] = target: human TSH receptor (full length, wild type) expressed on CHO cells (human) (UniProt P16473); assay: cell-based or functional assay
[13] = target: human TSHR (thyroid stimulating hormone receptor) expressed in transfected CHO cells (human) (UniProt P16473); assay: cell-based or functional assay

For 5B3 IgG (antibody), the % Inhibition of T8 serum stimulation; 0.1 µg/mL 5B3 IgG [1] was 3%, the % Inhibition of T8 serum stimulation; 1 µg/mL 5B3 IgG [1] was 2% and the % Inhibition of T8 serum stimulation; 10 µg/mL 5B3 IgG [1] was 0%. For the same substance, the % Inhibition of T8 serum stimulation; 100 µg/mL 5B3 IgG [1] was 3%, the Cyclic AMP concentration; 0.1 µg/mL 5B3 IgG + T8 [1] was 50.7 pmol/mL and the Cyclic AMP concentration; 1 µg/mL 5B3 IgG + T8 [1] was 51.4 pmol/mL. For the same substance, the Cyclic AMP concentration; 10 µg/mL 5B3 IgG + T8 [1] was 56 pmol/mL, the Cyclic AMP concentration; 100 µg/mL 5B3 IgG + T8 [1] was 50.5 pmol/mL and the Cyclic AMP concentration; 100 µg/mL 5B3 IgG alone [1] was 2.1 pmol/mL. It also gave a Mean absorbance at 405 nm (absorbance at 405 nm) [2] of -0.014, a Mean absorbance at 405 nm (absorbance at 405 nm) [3] of -0.006 and a Mean absorbance at 405 nm (absorbance at 405 nm) [4] of -0.006. The Mean absorbance at 405 nm (absorbance at 405 nm) [5] was 0.003, the Mean absorbance at 405 nm (absorbance at 405 nm) [6] was -0.006 and the Mean absorbance at 405 nm (absorbance at 405 nm) [7] was 0.049. For the same substance, the Mean absorbance at 405 nm (absorbance at 405 nm) [8] was -0.009, the Mean absorbance at 405 nm (absorbance at 405 nm) [9] was -0.001 and the % Inhibition; 3 ng/mL pTSH + 10 µg/mL 5B3 IgG [10] was 7%. For the same substance, the % Inhibition; 3 ng/mL pTSH + 100 µg/mL 5B3 IgG [10] was 7%, the % Inhibition; 5B3 IgG 10 µg/mL + 3 ng/mL pTSH [10] was 0% and the % Inhibition; 5B3 IgG 100 µg/mL + 3 ng/mL pTSH [10] was 0%. It also gave a % Inhibition of T5 serum stimulation; 0.1 µg/mL 5B3 IgG [11] of 7%, a % Inhibition of T5 serum stimulation; 1 µg/mL 5B3 IgG [11] of 4.1% and a % Inhibition of T5 serum stimulation; 10 µg/mL 5B3 IgG [11] of 3.1%. For the same substance, the % Inhibition of T5 serum stimulation; 100 µg/mL 5B3 IgG [11] was 12.5%, the Cyclic AMP concentration; 0.1 µg/mL 5B3 IgG + T5 [11] was 59.4 pmol/mL and the Cyclic AMP concentration; 1 µg/mL 5B3 IgG + T5 [11] was 61.3 pmol/mL. For the same substance, the Cyclic AMP concentration; 10 µg/mL 5B3 IgG + T5 [11] was 61.9 pmol/mL, the Cyclic AMP concentration; 100 µg/mL 5B3 IgG + T5 [11] was 55.9 pmol/mL and the Cyclic AMP concentration; 100 µg/mL 5B3 IgG alone [11] was 1.1 pmol/mL. It also gave a % Inhibition of M22 IgG (3 ng/mL) stimulation; 100 µg/ml 5B3 IgG [12] of 0%, a % Inhibition of pTSH (1 ng/mL) stimulation; 10 µg/mL 5B3 IgG [12] of 0% and a % Inhibition of pTSH (1 ng/mL) stimulation; 100 µg/mL 5B3 IgG [12] of 0%. The Cyclic AMP concentration in hypotonic medium; 100 µg/mL 5B3 IgG alone [12] was 2.2 pmol/mL, the Cyclic AMP concentration in isotonic medium; 100 µg/mL 5B3 IgG alone [12] was 1.4 pmol/mL and the Cyclic AMP concentration; 1 ng/mL pTSH + 10 µg/mL 5B3 IgG [12] was 80.7 pmol/mL. For the same substance, the Cyclic AMP concentration; 1 ng/mL pTSH + 100 µg/mL 5B3 IgG [12] was 79.3 pmol/mL, the Cyclic AMP concentration; 3 ng/mL M22 IgG + 100 µg/ml 5B3 IgG [12] was 41.8 pmol/mL and the Cyclic AMP concentration; 100 µg/mL 5B3 IgG alone (no TSH) [12] was 2.6 pmol/mL. The Cyclic AMP concentration; 5B3 IgG 100 µg/mL alone [12] was 1.2 pmol/mL, the % Inhibition; 3 ng/mL M22 IgG + 10 µg/mL 5B3 IgG [13] was 0% and the % Inhibition; 3 ng/mL M22 IgG + 100 µg/mL 5B3 IgG [13] was 0%. The Cyclic AMP concentration; 3 ng/mL M22 IgG + 10 µg/mL 5B3 IgG [13] was 44.7 pmol/mL.
